Starred links: 1 amine or outer side, 2 acyl side, 3 side chain; linkers in the order of their positions; H or OH if unused. Non-standard residues stand in square brackets, D forms with d. Groups on a side chain read outwards from the residue. *: point of attachment. TTDS = 4-[3-[2-[2-(3-aminopropoxy)ethoxy]ethoxy]propylamino]-4-oxo-butanoyl; γGlu = O=C(O)[C@H](CCC(=O)[*:2])N[*:1]; Stearoyl = CCCCCCCCCCCCCCCCCC(=O)*; Palmitoyl = CCCCCCCCCCCCCCCC(=O)*; αMeK = C[C@](N)(CCCCN)C(=O)O; hLys = NCCCCC[C@H](N)C(=O)O; AEEA = NCCOCCOCC(=O)O; Aib = CC(C)(N)C(=O)O
T1: RXFP1 receptor (endogenous, on OVCAR5 cells) (UniProt Q9HBX9 1-757, limits assumed)
T1 sequence (looked up): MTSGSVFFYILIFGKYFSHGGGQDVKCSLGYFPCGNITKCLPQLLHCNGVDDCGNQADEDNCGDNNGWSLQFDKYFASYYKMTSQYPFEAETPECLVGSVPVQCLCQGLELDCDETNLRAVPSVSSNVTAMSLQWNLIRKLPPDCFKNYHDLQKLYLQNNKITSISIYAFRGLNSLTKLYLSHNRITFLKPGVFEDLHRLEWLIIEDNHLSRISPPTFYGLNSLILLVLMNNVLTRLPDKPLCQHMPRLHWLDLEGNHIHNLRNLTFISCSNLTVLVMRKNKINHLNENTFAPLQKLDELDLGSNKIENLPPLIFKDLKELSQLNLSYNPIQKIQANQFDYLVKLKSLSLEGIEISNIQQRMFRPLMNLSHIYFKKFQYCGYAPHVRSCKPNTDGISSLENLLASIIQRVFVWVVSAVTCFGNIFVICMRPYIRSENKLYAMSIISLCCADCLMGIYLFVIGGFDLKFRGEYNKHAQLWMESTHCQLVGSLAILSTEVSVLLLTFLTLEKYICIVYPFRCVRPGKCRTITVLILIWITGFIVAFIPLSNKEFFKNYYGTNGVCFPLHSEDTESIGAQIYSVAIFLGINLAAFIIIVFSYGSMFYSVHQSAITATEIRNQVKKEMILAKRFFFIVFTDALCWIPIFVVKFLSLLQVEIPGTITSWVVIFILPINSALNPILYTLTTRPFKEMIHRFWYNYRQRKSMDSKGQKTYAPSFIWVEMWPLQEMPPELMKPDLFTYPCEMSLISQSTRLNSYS


Molecular target: T1, RXFP1 receptor (endogenous, on OVCAR5 …)
Experiment: cell-based or functional assay

| Binder | EC50 (nM), OVCAR 5 cells (cAMP) [nM] | EMax, OVCAR 5 cells (cAMP) [%] |
| --- | --- | --- |
| Ac-LEGREKVRAK(Ac)I[Aib][Aib]EGK([TTDS-TTDS-TTDS-γGlu-γGlu-γGlu-Stearoyl])STWS[Aib]RKK(Ac)-NH2 [peptide of SEQ ID NO: 20] | 0.15 | 96 |
| Ac-LEGREKVRAK(Ac)I[Aib][Aib]EGK([TTDS-TTDS-γGlu-γGlu-γGlu-Palmitoyl])STWS[dK]RKK(Ac)-NH2 [peptide of SEQ ID NO: 18] | 1.54 | 92 |
| LEGREKVRAXIXXEGXSTFSXRAX (Ac-L-E-G-R-E-K-V-R-A-K(Ac)-I-Aib-Aib-E-G-K(PEG2DGA-PEG2DGA-PEG2DGA-gE-gE-gE-Palm)-S-T-F-S-Mly-R-A-K(Ac)-NH2) [peptide of SEQ ID NO: 22] | 1 | 92 |
| Ac-LEGREKVRAK(Ac)I[Aib][Aib]EGK([AEEA-AEEA-AEEA-AEEA-γGlu-γGlu-γGlu-Stearoyl])STWS[Aib]RKK(Ac)-NH2 (SMILES CCCCCCCCCCCCCCCCCC(=O)N[C@@H](CCC(=O)N[C@@H](CCC(=O)N[C@@H](CCC(=O)NCCOCCOCC(=O)NCCOCCOCC(=O)NCCOCCOCC(=O)NCCOCCOCC(=O)NCCCC[C@H](NC(=O)CNC(=O)[C@H](CCC(=O)O)NC(=O)C(C)(C)NC(=O)C(C)(C)NC(=O)[C@@H](NC(=O)[C@H](CCCCNC(C)=O)NC(=O)[C@H](C)NC(=O)[C@H](CCCNC(=N)N)NC(=O)[C@@H](NC(=O)[C@H](CCCCN)NC(=O)[C@H](CCC(=O)O)NC(=O)[C@H](CCCNC(=N)N)NC(=O)CNC(=O)[C@H](CCC(=O)O)NC(=O)[C@H](CC(C)C)NC(C)=O)C(C)C)[C@@H](C)CC)C(=O)N[C@@H](CO)C(=O)N[C@H](C(=O)N[C@@H](Cc1c[nH]c2ccccc12)C(=O)N[C@@H](CO)C(=O)NC(C)(C)C(=O)N[C@@H](CCCNC(=N)N)C(=O)N[C@@H](CCCCN)C(=O)N[C@@H](CCCCNC(C)=O)C(N)=O)[C@@H](C)O)C(=O)O)C(=O)O)C(=O)O) [peptide of SEQ ID NO: 21] | 0.65 | 93 |
| Ac-LEGREKVRAK(Ac)I[Aib][Aib]EGK([AEEA-AEEA-AEEA-γGlu-γGlu-γGlu-Palmitoyl])STWS[Aib]RKK(Ac)-NH2 (SMILES CCCCCCCCCCCCCCCC(=O)N[C@@H](CCC(=O)N[C@@H](CCC(=O)N[C@@H](CCC(=O)NCCOCCOCC(=O)NCCOCCOCC(=O)NCCOCCOCC(=O)NCCCC[C@H](NC(=O)CNC(=O)[C@H](CCC(=O)O)NC(=O)C(C)(C)NC(=O)C(C)(C)NC(=O)[C@@H](NC(=O)[C@H](CCCCNC(C)=O)NC(=O)[C@H](C)NC(=O)[C@H](CCCNC(=N)N)NC(=O)[C@@H](NC(=O)[C@H](CCCCN)NC(=O)[C@H](CCC(=O)O)NC(=O)[C@H](CCCNC(=N)N)NC(=O)CNC(=O)[C@H](CCC(=O)O)NC(=O)[C@H](CC(C)C)NC(C)=O)C(C)C)[C@@H](C)CC)C(=O)N[C@@H](CO)C(=O)N[C@H](C(=O)N[C@@H](Cc1c[nH]c2ccccc12)C(=O)N[C@@H](CO)C(=O)NC(C)(C)C(=O)N[C@@H](CCCNC(=N)N)C(=O)N[C@@H](CCCCN)C(=O)N[C@@H](CCCCNC(C)=O)C(N)=O)[C@@H](C)O)C(=O)O)C(=O)O)C(=O)O) [peptide of SEQ ID NO: 19] | 11.5 | 94 |
| Ac-LEGREKVRAK(Ac)I[Aib][Aib]EGK([TTDS-TTDS-TTDS-γGlu-γGlu-γGlu-Palmitoyl])STFS[αMeK]RAK(Ac)-NH2 [peptide of SEQ ID NO: 3] | 0.34 | 97 |
| Ac-LEGRELVRAK(Ac)I[Aib][Aib]EGK([TTDS-TTDS-TTDS-γGlu-γGlu-γGlu-Palmitoyl])STFS[αMeK]RAK(Ac)-NH2 [peptide of SEQ ID NO: 23] | 11.1 | 92 |

Results, then the binder that gave them:

| EC50 (nM), OVCAR 5 cells (cAMP) [nM] | EMax, OVCAR 5 cells (cAMP) [%] | Binder |
| --- | --- | --- |
| 1.6 | 88 | Ac-LEGREKVR[Aib]K(Ac)I[Aib][Aib]EGK([TTDS-TTDS-TTDS-γGlu-γGlu-γGlu-Palmitoyl])STFS[αMeK]RAK(Ac)-NH2 [peptide of SEQ ID NO: 29] |
| 0.21 | 89 | Ac-LEGREKVRAK(Ac)I[Aib][Aib]EGK([TTDS-TTDS-TTDS-γGlu-γGlu-γGlu-Stearoyl])STWS[αMeK]RAK(Ac)-NH2 [peptide of SEQ ID NO: 30] |
| 1.8 | 98 | Ac-LEGRERVRAK(Ac)I[Aib][Aib]EGK([TTDS-TTDS-TTDS-γGlu-γGlu-γGlu-Palmitoyl])STFS[αMeK]RAK(Ac)-NH2 [peptide of SEQ ID NO: 27] |
| 0.19 | – | Ac-LEGRERVRAK(Ac)I[Aib][Aib]EGK([TTDS-TTDS-TTDS-γGlu-γGlu-γGlu-Palmitoyl])STWS[Aib]RRK(Ac)-NH2 [peptide of SEQ ID NO: 31] |
| 28.7 | 100 | Ac-LEGREQVRAK(Ac)I[Aib][Aib]EGK([TTDS-TTDS-TTDS-γGlu-γGlu-γGlu-Palmitoyl])STFS[αMeK]RAK(Ac)-NH2 [peptide of SEQ ID NO: 25] |
| 0.62 | 88 | Ac-LEGRE[hLys]VRAK(Ac)I[Aib][Aib]EGK([TTDS-TTDS-TTDS-γGlu-γGlu-γGlu-Palmitoyl])STFS[αMeK]RAK(Ac)-NH2 [peptide of SEQ ID NO: 28] |
| 0.1 | 97 | LEGREKVRAXIXXEGXSTFSXRAX (Ac-L-E-G-R-E-K-V-R-A-K(Ac)-I-Aib-Aib-E-G-K(PEG2DGA-PEG2DGA-PEG2DGA-gE-gE-gE-Stea)-S-T-F-S-Mly-R-A-K(Ac)-NH2) [peptide of SEQ ID NO: 32] |
| 0.43 | 96 | Ac-LEGREKVRAK(Ac)I[Aib][Aib]EGK([AEEA-AEEA-AEEA-AEEA-γGlu-γGlu-γGlu-Stearoyl])STFS[αMeK]RAK(Ac)-NH2 (SMILES CCCCCCCCCCCCCCCCCC(=O)N[C@@H](CCC(=O)N[C@@H](CCC(=O)N[C@@H](CCC(=O)NCCOCCOCC(=O)NCCOCCOCC(=O)NCCOCCOCC(=O)NCCOCCOCC(=O)NCCCC[C@H](NC(=O)CNC(=O)[C@H](CCC(=O)O)NC(=O)C(C)(C)NC(=O)C(C)(C)NC(=O)[C@@H](NC(=O)[C@H](CCCCNC(C)=O)NC(=O)[C@H](C)NC(=O)[C@H](CCCNC(=N)N)NC(=O)[C@@H](NC(=O)[C@H](CCCCN)NC(=O)[C@H](CCC(=O)O)NC(=O)[C@H](CCCNC(=N)N)NC(=O)CNC(=O)[C@H](CCC(=O)O)NC(=O)[C@H](CC(C)C)NC(C)=O)C(C)C)[C@@H](C)CC)C(=O)N[C@@H](CO)C(=O)N[C@H](C(=O)N[C@@H](Cc1ccccc1)C(=O)N[C@@H](CO)C(=O)N[C@@](C)(CCCCN)C(=O)N[C@@H](CCCNC(=N)N)C(=O)N[C@@H](C)C(=O)N[C@@H](CCCCNC(C)=O)C(N)=O)[C@@H](C)O)C(=O)O)C(=O)O)C(=O)O) [peptide of SEQ ID NO: 26] |
| 36.4 | 100 | Ac-LEGREFVRAK(Ac)I[Aib][Aib]EGK([TTDS-TTDS-TTDS-γGlu-γGlu-γGlu-Palmitoyl])STFS[αMeK]RAK(Ac)-NH2 [peptide of SEQ ID NO: 24] |
